Assay results as given in PMC5503940.
Each block holds one substance with its values, some of them ahead of it.

Experiments:
αβ-tubulin heterodimer [1] = target: αβ-tubulin heterodimer
αβ-tubulin heterodimer [2] = assay: SEC-MALS; KW803 (Shodex) column, 20 mM Pipes pH 6.8, 10 μM AMPPNP; 30 μl at about 3 mg/ml tubulin–Kif2C–DARPin complexes, 0.5 ml/min
αβ-tubulin heterodimer [3] = target: αβ-tubulin heterodimer; remark: listed apart in the source

Substance: Kif2C-(sN+M) (short neck+motor construct of human Kif2C/MCAK) (from UniProt Q99661 216-598) (domain or fragment)
microtubule-stimulated ATPase, K mMT; tubulin as Taxotere-stabilized microtubules (αβ-tubulin heterodimer [1]): 1.1 µM

Substance: Kif2C-(sN+M)-(G4S)4-GGS-DARPin (Kif2C-(sN+M) fused to the A-C2 DARPin) (from UniProt Q99661 216-598)
microtubule-stimulated ATPase, apparent K m (K mMT); tubulin as Taxotere-stabilized microtubules (αβ-tubulin heterodimer [3]): 20 µM | tubulin-stimulated ATPase, apparent Michaelis–Menten constant (αβ-tubulin heterodimer [3]): 0.5 µM | tubulin-stimulated ATPase, k cat (αβ-tubulin heterodimer [3]): 0.1 s⁻¹

Second part, the substance after the results:

microtubule depolymerase activity (turbidity, percent of wild-type Kif2C-(sN+M)) (αβ-tubulin heterodimer [1]): 5.7% | microtubule-stimulated ATPase, k cat; tubulin as Taxotere-stabilized microtubules (αβ-tubulin heterodimer [1]): 0.33 s⁻¹
Substance: Kif2C-(sN+M) R420S (from UniProt Q99661 216-598) (domain or fragment)

microtubule-stimulated ATPase, K mMT; tubulin as Taxotere-stabilized microtubules (αβ-tubulin heterodimer [1]): 17 µM
Substance: Kif2C-(sN+M) R510A (from UniProt Q99661 216-598) (domain or fragment)

microtubule depolymerase activity (turbidity, percent of wild-type Kif2C-(sN+M)) (αβ-tubulin heterodimer [1]): 5.5%
Substance: Kif2C-(sN+M) R540A (from UniProt Q99661 216-598) (domain or fragment)

stoichiometry N (tubulin:construct) (αβ-tubulin heterodimer [2]): 1
Substance: Kif2C-(sN+M)-(G4S)3-DARPin (Kif2C-(sN+M) linked to the D1 DARPin by a (G4S)3 peptide) (from UniProt Q99661 216-598)
